Source: patent publication US20030180744, “High affinity oligonucleotide ligands to growth factors” (GILEAD SCIENCES, INC., published 2003)

Tests used:
[1] = target: T1, TGFβ1 (Homo sapiens, UniProt P01137 P01137:279-390); assay: filter; not inhibitory; settings: tags: Genentech; biotinylated version used in bead assay; chain copies: 2
[2] = target: T1, TGFβ1; assay: filter; boundary experiment, each terminus separately; settings: tags: Genentech or R&D Systems; chain copies: 2
[3] = target: T2, KGF (hKGF) (Homo sapiens, UniProt P21781 P21781:32-194); assay: filter; similar to random RNA; settings: tags: Upstate Biotechnology; label: 32P
T2 sequence: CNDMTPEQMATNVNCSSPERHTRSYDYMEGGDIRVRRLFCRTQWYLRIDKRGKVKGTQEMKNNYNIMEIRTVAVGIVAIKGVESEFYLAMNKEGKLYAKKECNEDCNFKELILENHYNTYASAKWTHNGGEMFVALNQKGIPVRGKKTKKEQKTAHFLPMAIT

[4] = target: PDGF-BB (Homo sapiens, UniProt P01127 P01127:82-190); assay: competition; PDGF alpha-receptor PAE cells, 4 C; settings: tags: R&D Systems, E. coli; chain copies: B chain dimer; three-way helix junction
Method: The binding of ¹²⁵I-PDGF-AA and ¹²⁵I-PDGF-BB to porcine aortic endothelial (PAE) cells transfected with PDGF α- or β-receptors were performed as described (Heldin et al., (1988) EMBO J. 7:1387-1394). Different concentrations of DNA ligands were added to the cell culture (1.5 cm²) in 0.2 ml of phosphate buffered saline supplemented with 1 mg bovine serum albumin per ml together with ¹²⁵I-PDGF-AA (2 ng, 100,000 cpm) or ¹²⁵I-PDGF-BB (2 ng, 100,000 cpm). After incubation at 4° C. for 90 min, the cell cultures were washed and cell associated radioactivity determined in a γ-counter (Heldin et al., (1988) EMBO J. 7:1387-1394).
In order to determine whether the DNA ligands to PDGF were able to inhibit the effects of PDGF isoforms on cultured cells, the effects on binding of ¹²⁵I-labeled PDGF isoforms to PDGF α- and β-receptors stably expressed in porcine aortic endothelial (PAE) cells by transfection was determined.

[5] = target: T1, TGFβ1; assay: filter; not inhibitory in cell assay; settings: tags: Genentech; biotinylated version used in bead assay; chain copies: 2
[6] = target: T2, KGF (hKGF); assay: filter; high +, low +; settings: tags: Upstate Biotechnology
Method: (§1) In an effort to identify shorter KGF ligands that retained binding, the binding activity of various deletions of the shortest truncate of ligand 14F, namely 14F3′T were tested. Deletions were tested in all the structural elements of the proposed pseudoknot structure. RNA transcripts containing 2′F pyrimidines and 2′OH purines were obtained by in vitro transcription using synthetic DNA templates. The activity of each ligand is shown by scoring for both the high (H) and low (L) affinity component of the 14F3′T binding curve with +(active) or −(not active). Truncates T35 and T36 represent two complementary halves of 14F3′T molecule and were additionally tested as an equimolar mixture. The structural elements of the proposed pseudoknot structure are separated by (1) and are indicated by symbols S1 (stem 1), S2 (stem 2), L1 (loop 1) and L3 (loop 3). The proposed pseudoknot structure for 14F3′T is a non-H-type pseudoknot and lacks L2 (loop 2). The complementary sequences forming S1 (S1 and S1′) and S2 (S2 and S2′) are marked by single and double underlines respectfully. In the tabulated sequences, deleted bases were replaced with periods (.). […] Deletions in loop 3 (L3), however, were tolerated as long as one copy of the RRYY box remained intact. The shortest ligand that retained activity is T22 which is a 43-mer. In trying to obtain shorter ligands by truncating L3 further a mutant version of T22 (designated T22mu) was used where the last GC base pair of S1 was eliminated by a G to U mutation at position 6. The reasoning for this mutation was to enhance the flexibility of the double stranded region of this ligand by allowing an unpaired base between S1 and S2.

[7] = target: T2, KGF (hKGF); assay: filter; biphasic, high affinity 21%; Kd2 2.10 nM; settings: tags: Upstate Biotechnology; label: 32P
[8] = target: T2, KGF (hKGF); assay: filter; 43-mer, shortest active truncate; retains high and low affinity components; settings: tags: Upstate Biotechnology; pseudoknot (predicted)
Method: as §1, with “In trying to obtain shorter ligands by truncating L3 further a mutant version of T22 (designated T22mu) was used where the last GC base pair of S1 was eliminated by a G to U mutation at position 6. The reasoning for this mutation was to enhance the flexibility of the double stranded region of this ligand by allowing an unpaired base between S1 and S2.” left out

[9] = target: T1, TGFβ1; assay: filter; 37 C, KRH buffer; settings: tags: Genentech; biotinylated version used in bead assay; chain copies: 2

T1 sequence (P01137 279-390, one chain of several): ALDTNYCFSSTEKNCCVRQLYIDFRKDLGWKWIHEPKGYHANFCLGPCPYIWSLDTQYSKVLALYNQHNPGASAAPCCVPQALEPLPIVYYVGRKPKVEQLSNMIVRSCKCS
Sequence of PDGF-BB (P01127 82-190, one chain of several): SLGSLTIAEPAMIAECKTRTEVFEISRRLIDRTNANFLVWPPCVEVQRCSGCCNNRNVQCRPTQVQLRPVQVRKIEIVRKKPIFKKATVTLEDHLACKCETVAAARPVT

B1: lib9-10 (ssRNA)
RNA: GGGGGAGAACGCGGAUCCUGUCUCCACCGCCGAUACUGGGGUUCCUGGGGCCCCUCCAUGCAGGAGGGGUGGUUCGGAGAAAGCUUCGCUCUAGAUCUCCCUUUAGUGAGGGUUA
modifications: 2'-NH2 U, 2'-F C
Kd [1]: 1.1 nM

GCUUCCGAGUAGACAGGAGGGAGGGGUGGAUGUGGCGUCUAC (ssRNA, modified pyrimidines) [lib3-13 boundaries (38-79)]
binding result [2]: binds

B2: 65N (ssRNA)
RNA: GGGAGGACGAUGCGGUAACGUGGAAUAGGGUUAAACAGCUGGAAAUAACGUAGGUGGCCAGACGACUCGCCCGA
modifications: 2'-NH2 pyrimidines
Kd [3]: 26.6 nM

B3: lib3-45 (ssRNA)
RNA: GGGGGAGAACGCGGAUCCGGAAGUCUGGUCUUUGGGGAGUCCGCAUGGCCCUGGCGAAAGCUUCGCUCUAGAUCUCCCUUUAGUGAGGGUUA
modifications: 2'-NH2 pyrimidines
Kd [1]: 1.9 nM

TACTCAGGGCACTGCAAGCAATTGTGGTCCCAATGGGCTGAGTAT (ssDNA, 3'-3' idT) [41t]
IC50 [4]: ~1 nM

B4: lib1-20-5 (ssRNA)
RNA: GGGGGAGAACGCGGAUCCAAGAAUGUUCGGCCGCACGAGGUGACAGUGGUGCGGAUACGGACCGAUUGGGUUUGCCAAGCUUCGCUCUAGAUCUCCCUUUAGUGAGGGUUA
modifications: 2'-F pyrimidines
Kd [1]: 46 nM

B5: 59N (ssRNA)
RNA: GGGAGGACGAUGCGGGGUGGGUGGUUACCUGUAAUUAUAUUGAUUCUGGCUUUAGCAGACGACUCGCCCGA
modifications: 2'-NH2 pyrimidines
Kd [3]: 22 nM

B6: lib7-21 (ssRNA)
RNA: GGGGGAGAACGCGGAUCCGAGCAAUCCCGGGCGCAUAGCUUCCGAGGAGACAGGCGGGAGGGGUGGAUGUGGCGUCUCGAGAAGCUUCGCUCUAGAUCUCCCUUUAGUGAGGGUUA
modifications: 2'-F U, 2'-NH2 C
Kd [5]: 2.4 nM

B7: lib2-6-4 (ssRNA)
RNA: GGGGGAGAACGCGGAUCCGAGCAAUCCCAGGCGCAUAGCUUCCGAGUAGACAGGAGGGAGGGGUGGAUGUGGUGUCUCGAGAAGCUUCGCUCUAGAUCUCCCUUUAGUGAGGGUUA
modifications: 2'-NH2 pyrimidines
Kd [5]: 3.1 nM

B8: lib7-43 (ssRNA)
RNA: GGGGGAGAACGCGGAUCCGAGCAAUCCCAGGCGCAUAGCUUCCGAGUAGACAGGCGGGAGGGGUGGAUGUGGCGUCUCGAGAAGCUUCGCUCUAGAUCUCCCUUUAGUGAGGGUUA
modifications: 2'-F U, 2'-NH2 C
Kd [5]: 3.3 nM

B9: lib5-48 (ssRNA)
RNA: GGGGGAGAACGCGGAUCCGGCAAUCCCAGGCGCAUAGCUUCCGAGUAGACAGGAGGGAGGGGUGGAUGUGGUGUACGAGGAAGCUUCGCUCUAGAUCUCCCUUUAGUGAGGGUUA
modifications: 2'-NH2 pyrimidines
Kd [5]: 3.8 nM

GGGAGGACGAUGCGGUGGUCUCCCAAUUCUAUUCUCCAUCGUAUC (ssRNA, 2'-F pyrimidines) [T5]
binding result [6]: binds

GGGAGGACGAUGCGGUGGUCUCCCCUAAACUUUCUCCAUCGUAUC (ssRNA, 2'-F pyrimidines) [T4]
binding result [6]: binds

GGGAGGACGAUGCGGUGGUCUCCCAAUUCUAUCUCCAUCGUAUC (ssRNA, 2'-F pyrimidines) [T18]
binding result [6]: binds

GGGAGGACGAUGCGGUGGUCUCCCAAUUCUUUCUCCAUCGUAUC (ssRNA, 2'-F pyrimidines) [T21]
binding result [6]: binds

B10: lib4-12 boundaries (ssRNA)
RNA: GGAGAACGCGGAUCCUGAGAAGGACGUCGGGGUCAACGGGGUGAGGUGCAGCAGAAAGGGCCGGCACCA
modifications: modified pyrimidines
binding result [2]: binds

B11: 50F (ssRNA)
RNA: GGGAGGACGAUGCGGUGAUCAAUCGGCGCUUUACUCUUGCGCUCACCGUGCCCCAGACGACUCGCCCGA
modifications: 2'-F pyrimidines
Kd [7]: 0.12 nM

GGGAGGACGAUGCGGUGGUCUCCCAAUUCUUCUCCAUCGUAUC (ssRNA, 2'-F pyrimidines) [T22]
binding result [8]: binds

B12: 57N (ssRNA)
RNA: GGGAGGACGAUGCGGUCGUGGGGUGGGUGGGGGCAGCGUUGGAAUAAGUAACUGGUAACGGCUGGCCAGACGACUCGCCCGA
modifications: 2'-NH2 pyrimidines
Kd [3]: 35.8 nM

B13: lib1-20-3-82 (ssRNA)
RNA: GGGGGAGAACGCGGAUCCUGCUAGACCGAGGAUGCAAAGGGACAUGCAUUAGGGAAACCUAUGUAUAAGAACGCGGUCGCAG
modifications: 2'-F pyrimidines
Kd [1]: 6.1 nM

B14: lib3-3 (ssRNA)
RNA: GGGGGAGAACGCGGAUCCGAGCAACCCCAGGCGCAUAGCUUCCGAGUAGACAGGAGGGAGGGGUGGAUGUGGCGUCUACUCGGUGUCGUGAAGCUUCGCUCUAGAUCUCCCUUUAGUGAGGGUUA
modifications: 2'-NH2 pyrimidines
Kd [9]: 1.7 nM

B15: lib6-23 (ssRNA)
RNA: GGGGGAGAACGCGGAUCCAAGCUUCGAGUAGACAGGAGGGAGGGGUGGAUGUGGAGUCUCGAGAAGCUUCGCUCUAGAUCUCCCUUUAGUGAGGGUUA
modifications: 2'-NH2 pyrimidines
Kd [5]: 3.4 nM

B16: lib6-30 (ssRNA)
RNA: GGGGGAGAACGCGGAUCCUGCUAGACCGAGGAUGCAAAGGGACAUGCAUUAGGGAAACCUAUUAUAAGAACGCGGUCGCAGAAGCUUCGCUCUAGAUCUCCCUUUAGUGAGGGUUA
modifications: 2'-F pyrimidines
Kd [1]: 8.8 nM

TGGGAGGGCGCGTTCTTCGTGGTTACTTTTAGTCCCGT (ssDNA, 3'-3' idT) [20t]
IC50 [4]: ~1 nM
